Data taken from the supplement of paper PMC10266784.

B1: library; numbered along this chain (parent)
chain: MAAAAAAAAEQQSSNGPVKKSMREKAVERRSVNKEHNSNFKAGYIPIDEDRLHKTGLRGRKGNLAICVIILLFILAVINLIITLVIWAVIRIGPNGCDSMEFHESGLLRFKQVSDMGVIHPLYKSTVGGRRNENLVITGNNQPIVFQQGTTKLSVENNKTSITSDIGMQFFDPRTQNILFSTDYETHEFHLPSGVKSLNVQKASTERITSNATSDLNIKVDGRAIVRGNEGVFIMGKTIEFHMGGNMELKAENSIILNGSVMVSTTRLPSSSSGDQLGSGDWVRYKLCMCADGTLFKVQVTSQNMGCQISDNPCGNTH

Variants of: B1
Experiment: SGCB cell-surface expression functional score (HA stain, bin4 vs bin1, normalised to synonymous) (log10 ratio); higher = more cell-surface SGCB (functional)
Description: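 Deep mutational scan of full-length human SGCB (YFP-SGCB-HA, NNN codon sublibraries A-F) delivered by lentivirus at low MOI into ADG-HEK293 cells stably expressing SGCA, SGCD and SGCG. YFP-positive cells were stained for surface HA on unpermeabilized cells and FACS-sorted into bins. The functional score is log10(frequency in high bin 4 / frequency in low bin 1), normalised per chunk so that synonymous variants have mean 0 and SD 0.5. Scores are the median over codons and over duplicate biological replicates; scores below -0.5 are called non-functional. Scale: negative means deleterious.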

Question: With MAAAAAAAAEQQSSNGPVKKSMREKAVERRSVLKEHNSNFKAGYIPIDEDRLHKTGLRGRKGNLAICVIILLFILAVINLIITLVIWAVIRIGPNGCDSMEFHESGLLRFKQVSDMGVIHPLYKSTVGGRRNENLVITGNNQPIVFQQGTTKLSVENNKTSITSDIGMQFFDPRTQNILFSTDYETHEFHLPSGVKSLNVQKASTERITSNATSDLNIKVDGRAIVRGNEGVFIMGKTIEFHMGGNMELKAENSIILNGSVMVSTTRLPSSSSGDQLGSGDWVRYKLCMCADGTLFKVQVTSQNMGCQISDNPCGNTH [N33L] as the variant, how does the “SGCB cell-surface expression functional score (log10)” value read?
Answer: -0.11

Question: With MAAAAAAAAEQQSSNGPVKKSMREKAVERRSVMKEHNSNFKAGYIPIDEDRLHKTGLRGRKGNLAICVIILLFILAVINLIITLVIWAVIRIGPNGCDSMEFHESGLLRFKQVSDMGVIHPLYKSTVGGRRNENLVITGNNQPIVFQQGTTKLSVENNKTSITSDIGMQFFDPRTQNILFSTDYETHEFHLPSGVKSLNVQKASTERITSNATSDLNIKVDGRAIVRGNEGVFIMGKTIEFHMGGNMELKAENSIILNGSVMVSTTRLPSSSSGDQLGSGDWVRYKLCMCADGTLFKVQVTSQNMGCQISDNPCGNTH [N33M] as the variant, how does the “SGCB cell-surface expression functional score (log10)” value read?
Answer: 0.11

Question: With MAAAAAAAAEQQSSNGPVKKSMREKAVERRSVWKEHNSNFKAGYIPIDEDRLHKTGLRGRKGNLAICVIILLFILAVINLIITLVIWAVIRIGPNGCDSMEFHESGLLRFKQVSDMGVIHPLYKSTVGGRRNENLVITGNNQPIVFQQGTTKLSVENNKTSITSDIGMQFFDPRTQNILFSTDYETHEFHLPSGVKSLNVQKASTERITSNATSDLNIKVDGRAIVRGNEGVFIMGKTIEFHMGGNMELKAENSIILNGSVMVSTTRLPSSSSGDQLGSGDWVRYKLCMCADGTLFKVQVTSQNMGCQISDNPCGNTH [N33W] as the variant, how does the “SGCB cell-surface expression functional score (log10)” value read?
Answer: -0.14

Question: For MAAAAAAAAEQQSSNGPVKKSMREKAVERRSVNEEHNSNFKAGYIPIDEDRLHKTGLRGRKGNLAICVIILLFILAVINLIITLVIWAVIRIGPNGCDSMEFHESGLLRFKQVSDMGVIHPLYKSTVGGRRNENLVITGNNQPIVFQQGTTKLSVENNKTSITSDIGMQFFDPRTQNILFSTDYETHEFHLPSGVKSLNVQKASTERITSNATSDLNIKVDGRAIVRGNEGVFIMGKTIEFHMGGNMELKAENSIILNGSVMVSTTRLPSSSSGDQLGSGDWVRYKLCMCADGTLFKVQVTSQNMGCQISDNPCGNTH [K34E], which “SGCB cell-surface expression functional score (log10)” value is on record?
Answer: 0.34

Question: With MAAAAAAAAEQQSSNGPVKKSMREKAVERRSVNAEHNSNFKAGYIPIDEDRLHKTGLRGRKGNLAICVIILLFILAVINLIITLVIWAVIRIGPNGCDSMEFHESGLLRFKQVSDMGVIHPLYKSTVGGRRNENLVITGNNQPIVFQQGTTKLSVENNKTSITSDIGMQFFDPRTQNILFSTDYETHEFHLPSGVKSLNVQKASTERITSNATSDLNIKVDGRAIVRGNEGVFIMGKTIEFHMGGNMELKAENSIILNGSVMVSTTRLPSSSSGDQLGSGDWVRYKLCMCADGTLFKVQVTSQNMGCQISDNPCGNTH [K34A] as the variant, how does the “SGCB cell-surface expression functional score (log10)” value read?
Answer: -0.03

Question: With MAAAAAAAAEQQSSNGPVKKSMREKAVERRSVNCEHNSNFKAGYIPIDEDRLHKTGLRGRKGNLAICVIILLFILAVINLIITLVIWAVIRIGPNGCDSMEFHESGLLRFKQVSDMGVIHPLYKSTVGGRRNENLVITGNNQPIVFQQGTTKLSVENNKTSITSDIGMQFFDPRTQNILFSTDYETHEFHLPSGVKSLNVQKASTERITSNATSDLNIKVDGRAIVRGNEGVFIMGKTIEFHMGGNMELKAENSIILNGSVMVSTTRLPSSSSGDQLGSGDWVRYKLCMCADGTLFKVQVTSQNMGCQISDNPCGNTH [K34C] as the variant, how does the “SGCB cell-surface expression functional score (log10)” value read?
Answer: 0.33

Question: Which “SGCB cell-surface expression functional score (log10)” value does the source give for MAAAAAAAAEQQSSNGPVKKSMREKAVERRSVNHEHNSNFKAGYIPIDEDRLHKTGLRGRKGNLAICVIILLFILAVINLIITLVIWAVIRIGPNGCDSMEFHESGLLRFKQVSDMGVIHPLYKSTVGGRRNENLVITGNNQPIVFQQGTTKLSVENNKTSITSDIGMQFFDPRTQNILFSTDYETHEFHLPSGVKSLNVQKASTERITSNATSDLNIKVDGRAIVRGNEGVFIMGKTIEFHMGGNMELKAENSIILNGSVMVSTTRLPSSSSGDQLGSGDWVRYKLCMCADGTLFKVQVTSQNMGCQISDNPCGNTH [K34H] here?
Answer: 0.6

Question: With MAAAAAAAAEQQSSNGPVKKSMREKAVERRSVNFEHNSNFKAGYIPIDEDRLHKTGLRGRKGNLAICVIILLFILAVINLIITLVIWAVIRIGPNGCDSMEFHESGLLRFKQVSDMGVIHPLYKSTVGGRRNENLVITGNNQPIVFQQGTTKLSVENNKTSITSDIGMQFFDPRTQNILFSTDYETHEFHLPSGVKSLNVQKASTERITSNATSDLNIKVDGRAIVRGNEGVFIMGKTIEFHMGGNMELKAENSIILNGSVMVSTTRLPSSSSGDQLGSGDWVRYKLCMCADGTLFKVQVTSQNMGCQISDNPCGNTH [K34F] as the variant, how does the “SGCB cell-surface expression functional score (log10)” value read?
Answer: -0.14

Question: For MAAAAAAAAEQQSSNGPVKKSMREKAVERRSVNDEHNSNFKAGYIPIDEDRLHKTGLRGRKGNLAICVIILLFILAVINLIITLVIWAVIRIGPNGCDSMEFHESGLLRFKQVSDMGVIHPLYKSTVGGRRNENLVITGNNQPIVFQQGTTKLSVENNKTSITSDIGMQFFDPRTQNILFSTDYETHEFHLPSGVKSLNVQKASTERITSNATSDLNIKVDGRAIVRGNEGVFIMGKTIEFHMGGNMELKAENSIILNGSVMVSTTRLPSSSSGDQLGSGDWVRYKLCMCADGTLFKVQVTSQNMGCQISDNPCGNTH [K34D], which “SGCB cell-surface expression functional score (log10)” value is on record?
Answer: 0.26

Question: For MAAAAAAAAEQQSSNGPVKKSMREKAVERRSVNGEHNSNFKAGYIPIDEDRLHKTGLRGRKGNLAICVIILLFILAVINLIITLVIWAVIRIGPNGCDSMEFHESGLLRFKQVSDMGVIHPLYKSTVGGRRNENLVITGNNQPIVFQQGTTKLSVENNKTSITSDIGMQFFDPRTQNILFSTDYETHEFHLPSGVKSLNVQKASTERITSNATSDLNIKVDGRAIVRGNEGVFIMGKTIEFHMGGNMELKAENSIILNGSVMVSTTRLPSSSSGDQLGSGDWVRYKLCMCADGTLFKVQVTSQNMGCQISDNPCGNTH [K34G], which “SGCB cell-surface expression functional score (log10)” value is on record?
Answer: 0.01
